Test [1] addresses T1, recombinant KIT D4/D5 (human, UniProt P10721 26-519).
T1 construct: also called recombinant c-Kit Ig-like domains D4/D5; recombinant polypeptide of the D4/D5 region of human KIT
Kind of test: direct binding ELISA, plate-coated recombinant KIT D4/D5; assay #2 (supernatant), mean of 5 replicates. On the procedure: (§1) The binding affinity of the anti-KIT antibodies to the target antigen KIT Ig-like domains D4/D5 was assessed by direct binding ELISA. […] Bound antibody was detected with anti-human Ig-HRP followed by detection using TMB substrate.
(In general: ELISA stands for enzyme-linked immunosorbent assay.)

Test [2] concerns the target T2, full-length, wild-type human KIT expressed on CHO cells (human, UniProt P10721 26-976). Kind of test: cell-based or functional assay.
The target in test [3] is T1, recombinant KIT D4/D5. Nature of the test: direct binding ELISA, plate-coated recombinant KIT D4/D5; assay #4 (purified), 1 replicate. The method, then: as §1
The target in test [4] is T1, recombinant KIT D4/D5. Kind of test: solid phase ELISA, plate-adsorbed recombinant D4/D5 region of human KIT (FIG. 5). On the procedure: Recombinant antigen corresponding to the D4/D5 region of the KIT extracellular domain (see FIG. 2) was absorbed onto 96-well microtiter plates. In particular, recombinant antigen (5 μg) were diluted into 10 mL of borate buffer, and 100 μL of the antigen solution were added to each well of a 96 well plate and were incubated at 4° C. overnight.
ELISA: Following one rinse with TBS-T, blocking buffer (200 μL) was added to each well of the plate with the adsorbed antigen and was incubate at room temperature for one hour. Then, the blocking buffer was removed, and the serially diluted solutions of test antibodies and controls were added to the plate in a volume of 50 μL and incubated at room temperature for one hour. The antibody solutions were removed, and the plate was washed three times with 100 μL of wash buffer on a plate washer. After the last wash, the plate was blotted dry. Secondary antibody solution was diluted 1:8000 and was added to each well in a volume of 100 μL and allowed to incubate for one hour at room temperature. The diluted secondary antibody solution was removed, and the plate was washed three times with 100 μL of wash buffer on a plate washer. Then, freshly mixed TMB substrate solution was added to each well in a volume of 100 μL and was allowed to incubate at room temperature for 30 minutes. Subsequently, 100 μL of 2N H₂SO₄ were added to each well and immediately read on the plate reader. An irrelevant antibody served as the negative control, and an anti-KIT antibody against the D4 and/or D5 domain of the extracellular region of KIT served as the positive control. OD values for each sample were obtained at a wavelength of 450 nm.
Results were analyzed using Graph Pad Prism and Excel to obtain the concentration of antibodies at 50% binding to antigen.

Test [5] concerns the target T1, recombinant KIT D4/D5. Nature of the test: direct binding ELISA, plate-coated recombinant KIT D4/D5; assay #3 (purified), mean of 2 replicates. On the procedure: as §1
Test [6] has as its target T1, recombinant KIT D4/D5. Kind of test: direct binding ELISA, plate-coated recombinant KIT D4/D5; assay #1 (supernatant), mean of 4 replicates. On the procedure:
as §1

Test [7] addresses T2, full-length, wild-type human KIT …. Nature of the test: flow cytometry on CHO cells expressing full-length wild-type human KIT (FIG. 6). On the procedure: Briefly, parental CHO cells and CHO/KIT-WT cells were washed and incubated with 0.01 nM, 0.1 nM, 1 nM or 10 nM of a chimeric (human-mouse) 37M antibody, antibody Hum17, Hum8, Hum4, or Hum10, a negative control isotype IgG antibody, or a commercial anti-KIT antibody as a positive control. The samples were processed for flow cytometry analysis. More specifically, cells were removed from the culture flasks using EDTA, and washed with PBS. Then, the cells were resuspended in media and counted. Each sample containing approximately 200,000 to 250,000 cells was spun, the media was removed, and the cells were resuspended in FC buffer (1% BSA, 0.01% sodium azide in 1×PBS) for the blocking step. The cells were incubated in FC buffer for 1 hour on ice. Then, primary antibody (e.g., a chimeric (human-mouse) 37M antibody, Hum17, Hum8, Hum4, Hum10, positive control anti-KIT antibody, or negative control antibody) was added to the cells in FC buffer as described above. The samples were mixed and incubated on ice for 1 hour, followed by washing the cells with 0.5-1 mL FC buffer. The FC buffer was removed by spinning the cells at 1200 rpm for 3 minutes at 4° C., decanting the liquid. The cell pellets were resuspended in 200 μL FC buffer, and secondary antibody (DyLight 488 AffiniPure Goat Anti-Mouse IgG Jackson Laboratories) was added to the cells at a 1:1000 to 1:2000 dilution. The samples were mixed and incubated on ice for 1 hour, and then washed as described above. The samples were run on a fluorescence activated cell sorter (FACS) machine (Accuri FlowCytometer C6). Samples were analyzed by following channel FLA-1 for DyLight-conjugated samples.

T1 sequence (P10721 other isoform, or with tags, fused parts or gaps limits assumed): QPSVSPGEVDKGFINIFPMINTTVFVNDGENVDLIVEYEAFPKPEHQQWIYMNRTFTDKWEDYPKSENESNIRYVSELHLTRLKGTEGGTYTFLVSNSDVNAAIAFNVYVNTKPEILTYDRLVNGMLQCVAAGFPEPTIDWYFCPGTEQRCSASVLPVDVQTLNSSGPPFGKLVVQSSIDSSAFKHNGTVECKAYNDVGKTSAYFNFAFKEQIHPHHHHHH
T2 sequence (P10721 other isoform, or with tags, fused parts or gaps limits assumed): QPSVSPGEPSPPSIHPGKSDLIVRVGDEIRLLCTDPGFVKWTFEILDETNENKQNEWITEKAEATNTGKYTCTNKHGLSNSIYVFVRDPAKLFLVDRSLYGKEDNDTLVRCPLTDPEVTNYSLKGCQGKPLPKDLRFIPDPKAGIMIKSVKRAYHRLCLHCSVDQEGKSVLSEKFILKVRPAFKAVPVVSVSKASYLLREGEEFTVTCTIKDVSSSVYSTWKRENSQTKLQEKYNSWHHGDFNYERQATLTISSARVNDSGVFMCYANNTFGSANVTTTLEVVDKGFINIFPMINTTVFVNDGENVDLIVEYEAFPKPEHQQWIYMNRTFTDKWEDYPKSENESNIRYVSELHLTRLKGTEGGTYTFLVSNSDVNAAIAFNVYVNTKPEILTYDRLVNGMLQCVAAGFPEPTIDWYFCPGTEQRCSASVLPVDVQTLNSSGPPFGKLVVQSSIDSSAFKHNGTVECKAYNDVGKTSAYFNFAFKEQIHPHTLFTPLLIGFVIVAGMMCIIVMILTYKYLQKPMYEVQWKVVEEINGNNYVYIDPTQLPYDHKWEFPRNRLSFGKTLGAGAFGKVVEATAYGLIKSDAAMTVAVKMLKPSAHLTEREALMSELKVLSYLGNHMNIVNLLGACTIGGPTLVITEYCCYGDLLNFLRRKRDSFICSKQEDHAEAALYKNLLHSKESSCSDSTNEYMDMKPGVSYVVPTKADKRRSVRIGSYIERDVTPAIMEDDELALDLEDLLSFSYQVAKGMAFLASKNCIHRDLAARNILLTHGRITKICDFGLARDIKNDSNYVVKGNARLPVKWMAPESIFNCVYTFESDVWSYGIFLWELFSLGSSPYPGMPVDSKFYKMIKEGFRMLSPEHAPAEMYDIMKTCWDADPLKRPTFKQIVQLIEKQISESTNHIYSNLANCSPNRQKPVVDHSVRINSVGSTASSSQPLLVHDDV

B1: chimeric antibody 37C (antibody, V domains shown)
VH: QVQLKQSGAELVRPGASVKLSCKASGYTFTDYYINWVKQRPGQGLEWIARIYPGSGNTYYNEKFKGKATLTAEKSSSTAYMQLSSLTSEDSAVYFCARGVYYFDYWGQGTTLTVSA
VL: DIVMTQSQKFMSTSVGDRVSVTCKASQNVRTNVAWYQQKPGQSPKALIYSASYRYSGVPDRFTGSGSGTDFTLTISNVQSEDLADYFCQQYNSYPRTFGGGTKLEIK
notes: also called chimera of antibody 37M; chimera
For B1, the EC50 with recombinant KIT D4/D5 [1] was 0.412 nM; with recombinant KIT D4/D5 [3], 0.568 nM; with recombinant KIT D4/D5 [4], roughly 0.012 nM; with recombinant KIT D4/D5 [5], 0.462 nM; with recombinant KIT D4/D5 [6], 0.381 nM; in test [7], roughly 0.047 nM. Further, in test [2], the “50% inhibition concentration (IC50), SCF-induced KIT tyrosine phosphorylation, cell-based phospho-KIT ELISA” value is roughly 0.344 nM.

The term EC50 denotes the concentration at which the effect is half-maximal.

The values above are taken from patent publication US20190106510A1 (CELLDEX THERAPEUTICS, published 2019).
